Experimental data: patent US20250345387A1, “CORONAVIRUS THERAPEUTICS AND TREATMENT METHODS” (priority 2020, published 2025)
Where no end group is shown, it is not given here. Side-chain parts run from the residue outwards. 4‑arm PEG 10 kDa = 10 kDa 4-armed polyethylene glycol

T1: recombinant mouse Tie2Fc (mouse, UniProt Q02858 23-743)
T1 chain: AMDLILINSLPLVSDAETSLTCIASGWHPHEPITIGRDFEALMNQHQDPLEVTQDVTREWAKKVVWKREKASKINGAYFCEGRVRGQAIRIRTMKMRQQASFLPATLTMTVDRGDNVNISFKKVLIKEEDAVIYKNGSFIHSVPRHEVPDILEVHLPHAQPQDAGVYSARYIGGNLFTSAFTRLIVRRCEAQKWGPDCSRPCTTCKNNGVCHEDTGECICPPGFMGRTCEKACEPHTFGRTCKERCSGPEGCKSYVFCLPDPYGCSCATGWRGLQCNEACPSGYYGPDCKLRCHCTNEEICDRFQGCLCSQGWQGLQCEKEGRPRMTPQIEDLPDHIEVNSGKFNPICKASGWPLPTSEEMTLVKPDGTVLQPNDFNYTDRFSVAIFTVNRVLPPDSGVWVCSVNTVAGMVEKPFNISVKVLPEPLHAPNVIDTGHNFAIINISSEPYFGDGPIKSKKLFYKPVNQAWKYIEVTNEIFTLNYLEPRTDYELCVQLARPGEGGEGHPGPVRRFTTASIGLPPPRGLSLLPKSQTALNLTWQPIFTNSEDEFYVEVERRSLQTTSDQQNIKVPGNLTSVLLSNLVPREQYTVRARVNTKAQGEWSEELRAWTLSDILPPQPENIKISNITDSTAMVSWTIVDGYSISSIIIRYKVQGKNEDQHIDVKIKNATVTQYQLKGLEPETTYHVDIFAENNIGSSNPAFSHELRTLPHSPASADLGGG

T2: recombinant cynomolgus monkey Tie2-FC (Macaca fascicularis, UniProt G7PS68 23-748)
T2 chain: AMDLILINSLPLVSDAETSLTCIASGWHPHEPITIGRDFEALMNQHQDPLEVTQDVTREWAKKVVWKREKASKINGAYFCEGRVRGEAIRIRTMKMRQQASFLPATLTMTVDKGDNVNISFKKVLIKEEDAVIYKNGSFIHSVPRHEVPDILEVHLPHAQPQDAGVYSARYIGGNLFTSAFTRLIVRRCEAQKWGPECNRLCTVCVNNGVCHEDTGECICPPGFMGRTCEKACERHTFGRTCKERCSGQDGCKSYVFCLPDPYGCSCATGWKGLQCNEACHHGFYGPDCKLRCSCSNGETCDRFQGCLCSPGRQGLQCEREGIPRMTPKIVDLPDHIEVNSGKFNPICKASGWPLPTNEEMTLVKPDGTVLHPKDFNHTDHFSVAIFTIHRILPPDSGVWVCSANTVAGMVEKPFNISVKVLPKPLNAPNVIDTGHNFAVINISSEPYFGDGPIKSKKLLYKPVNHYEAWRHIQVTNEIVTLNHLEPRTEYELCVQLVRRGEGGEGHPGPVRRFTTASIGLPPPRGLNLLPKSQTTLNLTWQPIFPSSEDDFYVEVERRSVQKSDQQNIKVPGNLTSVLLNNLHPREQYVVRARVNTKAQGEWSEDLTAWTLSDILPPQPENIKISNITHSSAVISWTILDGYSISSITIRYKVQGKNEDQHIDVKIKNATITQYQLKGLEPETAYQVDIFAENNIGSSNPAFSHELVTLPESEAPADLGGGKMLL

T3: recombinant rat Tie2-FC (Rattus norvegicus, UniProt A0ABK0L6J5 19-740)
T3 chain: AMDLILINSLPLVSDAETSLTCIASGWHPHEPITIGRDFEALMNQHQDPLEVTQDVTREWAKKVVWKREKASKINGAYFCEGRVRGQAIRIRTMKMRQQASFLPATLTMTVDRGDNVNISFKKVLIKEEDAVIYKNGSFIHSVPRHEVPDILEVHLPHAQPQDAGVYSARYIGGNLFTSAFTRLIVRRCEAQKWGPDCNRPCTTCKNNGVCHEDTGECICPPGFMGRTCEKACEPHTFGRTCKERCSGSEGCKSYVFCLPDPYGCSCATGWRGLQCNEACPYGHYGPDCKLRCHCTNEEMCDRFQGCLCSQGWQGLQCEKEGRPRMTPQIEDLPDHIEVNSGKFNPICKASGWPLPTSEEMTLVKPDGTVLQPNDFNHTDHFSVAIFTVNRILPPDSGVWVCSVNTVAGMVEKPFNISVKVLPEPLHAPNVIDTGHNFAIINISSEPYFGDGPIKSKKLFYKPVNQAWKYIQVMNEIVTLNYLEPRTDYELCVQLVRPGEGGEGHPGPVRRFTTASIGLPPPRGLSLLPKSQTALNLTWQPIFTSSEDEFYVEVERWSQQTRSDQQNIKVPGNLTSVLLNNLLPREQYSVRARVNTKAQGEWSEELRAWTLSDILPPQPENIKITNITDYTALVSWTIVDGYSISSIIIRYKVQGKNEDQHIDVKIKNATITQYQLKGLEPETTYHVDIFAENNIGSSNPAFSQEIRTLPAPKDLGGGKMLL

B1: MPA-Br (peptide)
peptide: HHHRHSF-OH
modifications: not fully specified (N-terminus); also: tetramer: four copies on (bromoacetimide)4-PEG10K
notes: Mpa is not an amino acid; also called mBr; AV-001
B2: parental Vasculotide (peptide)
peptide: C([maleimide-4‑arm PEG 10 kDa])HHHRHSF
modifications: also: tetramer: four copies on 4-armed 10 kDa PEG, mixture of succinimide and thiazine ring products
notes: Manufactured by Bachem; also called VT; parental VT

Legend:
recombinant mouse Tie2Fc = molecular target: T1, recombinant mouse Tie2Fc; experiment: tryptophan fluorescence spectroscopy
[1] = molecular target: T2, recombinant cynomolgus monkey Tie2-FC; experiment: tryptophan fluorescence spectroscopy
recombinant rat Tie2-FC = molecular target: T3, recombinant rat Tie2-FC; experiment: tryptophan fluorescence spectroscopy
[2] = molecular target: human Tie2 receptor on human endothelial cells (HUVEC, HMVECtert) (human, UniProt Q02763 23-1124); experiment: cell-based or functional assay
recombinant human Tie2Fc = molecular target: T4, recombinant human Tie2Fc (human, UniProt Q02763 23-745); experiment: tryptophan fluorescence spectroscopy in solution, non-linear regression one site specific binding
T4 construct: Bought from R&D Systems; not shown: human IgG Fc
Text: The specific signal was derived by subtraction of the fluorescence intensity generated by ligand alone from the receptor and ligand complex.
Ligand and receptor interaction. […] Data was compiled using SoftMax and analyzed using Prism.

Binder	Kd (recombinant mouse Tie2Fc) [nM]	Kd [1] [nM]	Kd (recombinant rat Tie2-FC) [nM]	relative magnitude of Tie2 activation in HMVECtert [2] [fold]	Kd (recombinant human Tie2Fc) [nM]
B1	6.82	0.0229	4.21	~3.3	2.62
B2	35				
